One molecule from article PMC11832431 (MedComm, 2025) can be followed below.

This test deals with T1, His-DUB3 (deubiquitinating enzyme 3) (UniProt Q6R6M4 1-530).
T1 construct: deubiquitinating enzyme 3 (DUB3); also called purified recombinant His-DUB3; source: purified recombinant (cloned into PET28A)
T1 sequence (looked up): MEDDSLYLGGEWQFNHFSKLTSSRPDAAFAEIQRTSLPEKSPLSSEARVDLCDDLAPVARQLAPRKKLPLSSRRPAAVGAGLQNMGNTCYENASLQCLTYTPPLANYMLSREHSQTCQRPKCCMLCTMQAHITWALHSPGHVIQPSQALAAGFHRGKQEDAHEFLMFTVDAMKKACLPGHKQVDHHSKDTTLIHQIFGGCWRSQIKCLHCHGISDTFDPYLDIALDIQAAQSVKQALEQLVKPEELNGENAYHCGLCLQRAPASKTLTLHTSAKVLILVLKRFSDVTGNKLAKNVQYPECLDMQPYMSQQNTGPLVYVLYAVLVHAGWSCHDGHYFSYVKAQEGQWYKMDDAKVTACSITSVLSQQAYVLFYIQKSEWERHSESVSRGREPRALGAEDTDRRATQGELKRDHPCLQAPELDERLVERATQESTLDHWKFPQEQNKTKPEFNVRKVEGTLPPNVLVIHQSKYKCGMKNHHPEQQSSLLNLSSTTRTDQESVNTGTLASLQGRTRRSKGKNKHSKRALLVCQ
Kind of test: pull-down; purified recombinant GST or GST fusion protein incubated in vitro (cell-free) with purified recombinant His-tagged protein; blot and Coomassie blue staining. The following applies: both partners purified.

B1: GST-CDK4 (cyclin-dependent kinase 4) (enzyme, UniProt P11802 1-303, looked up)
chain: MATSRYEPVAEIGVGAYGTVYKARDPHSGHFVALKSVRVPNGGGGGGGLPISTVREVALLRRLEAFEHPNVVRLMDVCATSRTDREIKVTLVFEHVDQDLRTYLDKAPPPGLPAETIKDLMRQFLRGLDFLHANCIVHRDLKPENILVTSGGTVKLADFGLARIYSYQMALTPVVVTLWYRAPEVLLQSTYATPVDMWSVGCIFAEMFRRKPLFCGNSEADQLGKIFDLIGLPPEDDWPRDVSLPRGAFPPRGPRPVQSVVPEMEESGAQLLLEMLTFNPHKRISAFRALQHSYLHKDEGNPE
notes: cyclin-dependent kinase 4 (CDK4); CDK4 and CDK6 were cloned as separate genes, so they are written as two molecules; No cyclin is mentioned; also called GST-CDK4/6; source: purified recombinant (cloned into pGEX4T-1)
Turning to B1, the binding result is “binds”.
